The values that follow are results of earlier work, collected in publication PMC6803667, “Binding site plasticity in viral PPxY Late domain recognition by the third WW domain of human NEDD4” (Scientific Reports, 2019).

The target of the data set is ARRDC3 peptide (Homo sapiens).

Chain of NEDD4 WW3 (P46934 837-876): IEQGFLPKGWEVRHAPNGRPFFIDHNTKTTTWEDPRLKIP

For NEDD4 WW3 (from UniProt P46934), the dissociation constant Kd is 3 µM.
